Results: the DeepSol protein solubility set

Assay: soluble on expression in E. coli; label from the status in PepcDB or PDB records
In the case of “SDLDLLDLNPRIIAAIKKAKLKSVKEVLHFSGPDLKRLTNLSSPEVWHLLRTASLHLRGSSILTALQLHQQKERFPTQHQRLSLGCPVLDALLRGGLPLDGITELAGRSSAGKTQLALQLCLAVQFPRQHGGLEAGAVYICTEDAFPHKRLQQLMAQQPRLRTDVPGELLQKLRFGSQIFIEHVADVDTLLECVNKKVPVLLSRGMARLVVIDSVAAPFRCEFDSQASAPRARHLQSLGATLRELSSAFQSPVLCINQVTEAMEEQGAAHGPLGFWDERVSPALGITWANQLLVRLLADRLREEEAALGCPARTLRVLSAPHLPPSSCSYTISAEGVRGTPGTQSH”, the “soluble on expression in E. coli” value is reported as “soluble”.
In the case of “PLESCVRLHSSSGTTGNPTVMLYTQNDLDNWSKLMARCMSLSGANRHDIFQNIMGYGLFTGGIGFHYGAERLGMLTIPIGPGNSKRQGWFMKHLGVSVVHILPSYAFRLYSHLKEEGVDPKELPLRIAFIGAEPHSEAMRREIERLYGIKAFNSFGLSEMNGPGVAFECQEQSGMHLW”, the “soluble on expression in E. coli” value is reported as “not soluble”.
For “MRGQNRRGYRNIEGRLSLSSHSSHSSPRQTHVTNLRPAEIKVVQDVVDGCYVATDDVLNLSNFSKNTEFVERDMLMCLTKTRVMSVVLQHIGYKYPRISGISFSNNRLCHLDHLSSLSSISKFLKFLDLSHNQISSGEELKKLGTIPVETVFFEGNPVCEKFVQCAEYANFIQKTFPKCSNLDGMEVEPKPDHNRIEQIIPFRNGYYGSDEVRTLVEEFIITYYKIYDGADGQQTRKQLLDAYDTNNSTFTHTVVCLWDPIKFVMYPDSESYRMYLRTSHNVLNQEYFAANRASRISHGAMDIVVALSRLPATIHLMDTFVVDVFLVSATLLGFTLHGTFRDGPSAIKPENTEEHDNYFTRTFMVAPRGEGKVAIVSDQLFISSMSKRRGDQYRMLVETATDIDQ”, the “soluble on expression in E. coli” value was “not soluble”.
With “MGSDKIHHHHHHMSHLPHLIAKLENHAEWVKRLVLVGQKSWHTPLQKGGWSPAEVIHHFHRWDDFARNYRFIPFLAGRATFTAGAHAKFNEHSEREVRDGLGKEAIIVQCLKSRYALIETVEKLREEAWEQTLTIGDHDLSIHTYLQGVIEHDRHHREQIEQFFSLEQQGKLPMVNITERCGEELPMNLLLLADPEQAMIERYLSGGLGFLAEVEGTPVGVIVLKDKGHGLFEVMNIAVAEQEQGKGYGKLLLLHGIHVALKRGADRIEIGTGNSSIGQLALYQRCGFSITAVDKDFFTKHYHEPIVEQGIRCEHMIRLAQDLK” the “soluble on expression in E. coli” value was “not soluble”.
In the case of “MKTPTFGKREETLTYQTRYAAYIIVSKPENNTMVLVQAPNGAYFLPGGEIEGTETKEEAIHREVLEELGISVEIGCYLGEADEYFYSNHRQTAYYNPGYFYVANTWRQLSEPLERTNTLHWVAPEEAVRLLKRGSHRWAVEKWLAAASLEHHHHHH”, the “soluble on expression in E. coli” value is reported as “soluble”.
In the case of “MKNSKAILQVPGTMKIISAEIPVPKEDEVLIKVEYVGICGSDVHGFESGPFIPPKDPNQEIGLGHECAGTVVAVGSRVRKFKPGDRVNIEPGVPCGHCRYCLEGKYNICPDVDFMATQPNYRGALTHYLCHPESFTYKLPDNMDTMEGALVEPAAVGMHAAMLADVKPGKKIIILGAGCIGLMTLQACKCLGATEIAVVDVLEKRLAMAEQLGATVVINGAKEDTIARCQQFTEDMGADIVFETAGSAVTVKQAPYLVMRGGKIMIVGTVPGDSAINFLKINREVTIQTVFRYANRYPVTIEAISSGRFDVKSMVTHIYDYRDVQQAFEESVNNKRDIIKGVIKISD”, the “soluble on expression in E. coli” value is reported as “soluble”.
For “SGKLHSKPAAVCKRRESPEGDSFAVSAAWARKGIEEWIGRQRCPGGVSGPRQLRLAGTIGRSTRELVGDVLRDTLSEEEEDDFRLEVALPPEKTDGLGSGDEKKMERVSEPCPGSKKQLKFEELQCDVSMEEDSRQEWTFTLYDFDNNGKVTREDITSLLHTIYEVVDSSVNHSPTSSKMLRVKLTVAPDGSQSKRSVLVNQADLQSARPRAETKPTEDLRSWEKKQRAPLRFQGDSRLEQSGCYHHCVDENIERRNHYLDLAGIENYTSQFGPGSPSVAQKSELPPRTSNPTRSRSHEPEAIHIPHRKPQGVDPASFHFLDTPIAKVSELQQRLRGTQDGSKHFVRSPKAQGKSVGVGHVARGARNKPPLGPAIPAVSPSAHLAASPALLPSLAPLGHKKHKHRAKESQQGCRGLQAPLASGGPVLGREHLRELPALVVYESQAGQPVQRHEHHHHHEHHHHYHHFYQT”, the “soluble on expression in E. coli” value was “not soluble”.
With “MHHHSHHHHSHMDVTIQHPWFKRTLGPFYPSRLFDQFFGEGLFEYDLLPFLSSTISPYYRQSLFRTVLDSGISEVRSDRDKFVIFLDVKHFSPEDLTVKVQDDFVEIHGKHNERQDDHGYISREFHRRYRLPSNVDQSALSCSLSADGMLTFCGPKIQTGLDATHAERAIPVSREEKPTSAPSSLEIRLLLEIRLL” the “soluble on expression in E. coli” value was “soluble”.
For “MVDGQPSLQQVLERVDEWMAKEGLLDPNVKSIFVTCGDWDLKVMLPGQCQYLGLPVADYFKQWINLKKAYSFAMGCWPKNGLLDMNKGLSLQHIGRPHSGIDDCKNIANIMKTLAYRGFIFKQTSKPF”, the “soluble on expression in E. coli” value was “not soluble”.
With “MNTPRIPIASHQAVMRCLRDKLQQANLTLQTDYTEPAVSYQQRGATAGTAWLQHWEIRLNPVLLQENQQTFIDEVVPHELAHLLVYARFGRVAPHGKEWRWMMENVLHVPAKRTHRFAVQSVQGKTFTYLCDCQRHELTIRRHNRVLRGETEYRCRRCGKTLRHDVKSSILEHHHHHH” the “soluble on expression in E. coli” value was “soluble”.
With “MGSDKIHHHHHHMNARVNLNGLGTLHPMTSTRIATGTSGLDTILRGGLPSNRLYLLEGQPGSGKTTLALQFLLEGAAKGESCLYITLSETLDELQEVAQSHGWSLDALHIFELASAEAFLGDGRQQSILHPWELELDGTVKLIQAEVDRVKPQRVVFDSLSELRLLAQDSLRYRRQVLALKQFFAPRNITVLLVDDLTGTSEGRDSHLHSLCHGVVSLERLTLDFGAARRRMQVQKLRGVDFIAGYHDLSILRGGLRIYPRLIASDHHVTFIGDAVSSGVQEVDDLLHGGPLRGTSTLLTGPAGSGKTNLALQYVAAACARGEHCCIFEFDERTGTLLARAESLGLDLRRHLESGLLELRQMDPAELSPGEFAWQVRASVEQRNCRLLVIDSLNGYLSSMPQEKQLMLQMHELLSYLNQSGVTTFLINPQHGLVGTMSTGNLNISYMADTVILFRFFEAQGRIRKALSVIKNRSGAHEDAIRELRIGNSGIRLSAPLNDFHGVLTGTPHFIGDEAPLLGNDLARR” the “soluble on expression in E. coli” value was “not soluble”.
With “MSLRHVIREVRADLIASPVQTGFQDATRKVETVGMCVIRVNTDQGLTGIGVTYHEVGGEAIKEMIERYYGPKLIGRDPFETEEIWEELFHYARGVGRKGLSFCALSAVDIALWDLKGKIMDLPLYRLLGGNKKKVPVYASGGWTSYDDDALVAEALEMVRRGYKMIKLKVGVEGGRNIRRDTQRCRKVREAIGPDIGFMVDANNAFHSGDAVRLANEIREYDILFFEEPVFADDIPGLRRFRQGTDIPLGTGEHEYTRYGARDLILGEAVDYLQMDVTRCGGITEMLKVIALSQAWNLAFAPHAMEHIHMHLVSAAANGAFLERLFLFEDITAMVFKDAPVPEEGILTIPDKPGLGLELNSEFLREGHHHHHH” the “soluble on expression in E. coli” value was “soluble”.
In the case of “MSSFTHFNEQGRAKMVDITHKEDTVRVAVAQTSVTVSREIYEKMTSNAIEKGDVLAVAQVAGVMAAKKTADLIPMCHPLMLKGVDIAFAWENDGEAHKLVITATVKTKGSTGVEMEALTAASVCALTVYDMCKALDKGMVIGPTYLVEKTGGKSGHYRRKTD”, the “soluble on expression in E. coli” value is reported as “soluble”.
For “MVLLVSQLYGCGDPLPEQRKLSHFDRIKAAGELRVLVRDKRFASSRPASGTAGFERDLLHGFASHLGVRLRFIPANARPVTERLLRGEADFAAMPSRSVAGEVLPTGGPPPFAGVTPVGGWVGALAGGLKGMARNSAQKFNPRMAFAEYSPRRVHTLKWAFPENAGVRGPRALAWMFAEPEGDHLAMMAEHFLRDMCERKGLDPLLDRHFGHNEGADPALDRNLRESYGRQLGKYRRTFVEAAARHGLDWRLLAAVAFQESRWDGHAVSAEGVRGMMMLTGATARELGVDRNNPGQSIHGGARYLKAVWSRLPEEIAEPDRTWFALSAYNLGPGRVETARRLAKKLGRDPNKWAEVKKTLPLVGAGRSGGRFRHPSARGKLTVQYVNRVRHYYDLLVRLEHHHHHH”, the “soluble on expression in E. coli” value was “soluble”.
With “MTLPMQETRFSILLDELAAKQEAAIAPHLLADGTKVWIRKAGRHNARWRYALLGMVARYLKLGVLKPVPSLGGEPAIATESKRLYELRSAGIAVPELLAVRKNALMFGNLEGIPLDAQIRQEAEAGKSDAWLAGLEAIARVHKKRQFLSQAFARNMMSDGKNISFLDFEDDPSEVLTIAQCQARDWLCYIHSTALILKNGGLLEAAAEKWGGVLSDQPAEIQKLIAATVKPILPIRRLEHPRWGRDALRLAASISLISLADMPP” the “soluble on expression in E. coli” value was “not soluble”.
In the case of “MSLNYSDPVTFEILGVVANYGQEGCFMLAQLPPALQSLHLPLRLKLWDGNHFDLGPSPQVTILVKEPQLISQLTHPSMDQLGTAFVEGKLELEGDIGEAIRVCDELSEALLADEDETPPPRVSHDKTTDAKAISYHYDVSNAFYQLWLDQDMAYSCAYFREPDNTLDQAQQDKFDHLCRKLRLDAGDYLLDVGCGWGGLARFAAREYGAKVFGITLSKEQLKLGRKRVQAEGLADKVDLQILDYRDLPQDGRFDKVVSVGMFEHVGHANLALYCQKLFGAVREGGLVMNHGITAKHVDGRPVGRGAGEFIDRYVFPHGELPHLSMISASICEAGLEVVDVESLRLHYAKTLHHWSENLENQLHKAAALVPEKTLRIWRLYLAGCAYAFQKGWINLHQILAVKPYADGHHDLPWTREDLYREGHHHHHH”, the “soluble on expression in E. coli” value is reported as “soluble”.
In the case of “MTRQSLQQAAESRRSIYSLNKNLPVGKDEVVQIVEHAVLHTPSSFNSQSARVVVLFGEEHDKVWQFVEDALRAVVPADSFEPTAQKLNLFKAGAATILFYEDQNVVKGLQEQFPAYAANFPVWADQANAMVQYAVWTTLAAVGVGANLQHYNPLPDAAIAKAWNIPENWLLRAQMVIGGIEGAAGEKTFEPVAERLKVFGA”, the “soluble on expression in E. coli” value is reported as “not soluble”.
In the case of “GSMTDGDYDYLIKLLALGDSGVGKTTFLYRYTDNKFNPKFITTVGIDFREKRVVYDTQGADGASGKAFKVHLQLWDTAGLERFRSLTTAFFRDAMGFLLMFDLTSQQSFLNVRNWMSQLQANAYCENPDIVLIGNKADLPDQREVNERQARELAEKYGIPYFETSAATGQNVEKSVETLLDLIMKRMEKCVEKTQVPDTVNGGNSGKLDGEKPAEKKCAC”, the “soluble on expression in E. coli” value is reported as “soluble”.
In the case of “MKIVEGVSLHLIKNQQFKTNHLTFRFSGDFNNKTVARRSLVAQMLVTANAKYPKVQEFREKLASLYGASLSTKISTKGLVHIVDIDIVFVKNTFTLEQENIVEQIITFLEDMLFSPLISLEQYQTSIFDTEKKN”, the “soluble on expression in E. coli” value is reported as “not soluble”.
With “MNLFEYKLSVVRQVMDKYEVAEEAKFISGLSKGSMVNALSRKKKLPNKEAKFTRYVIYTVDVERIIDMMEEPYRTVIKKRYYDASLDTVKKDFGLQNKREAYFLVKKSVNKFYDLLENYWK” the “soluble on expression in E. coli” value was “not soluble”.
For “MVIVLVVDSFKDTSNGTSMTAFRFFEALKKRGHVMRVVAPHVDNLGSEEEGYYNLKERYIPLVTEISHKQHILFAKPDEKILRKAFKGADMIHTYLPFLLEKTAVKIAREMQVPYIGSFHLQPEHISYNMKLGWFSWFNMMLFSWFKSSHYRYIHHIHCPSKFIVEELEKYNYGGKKYAISNGFDPMFRFEHPQKSLFDTTPFKIAMVGRYSNEKNQSVLIKAVALSKYKQDIVLLLKGKGPDEKKIKLLAQKLGVKAEFGFVNSNELLEILKTCTLYVHAANVESEAIACLEAISVGIVPVIANSPLSATRQFALDERSLFEPNNAKDLSAKIDWWLENKLERERMQNEYAKSALNYTLENSVIQIEKVYEEAIRDFKNNPHLFKTLSLEHHHHHH”, the “soluble on expression in E. coli” value was “soluble”.
